Assay results reported in patent publication US20240182561A1 (Regeneron, published 2024).

Columns and labels:
[1] = molecular target: T1, human CACNG1 expressed on cells (human, UniProt Q06432 1-222); assay: cell-based or functional assay
[2] = molecular target: T1, human CACNG1 expressed on cells; assay: cell-based or functional assay; remark: listed apart in the source
[3] = molecular target: T1, human CACNG1 expressed on cells; assay: cell-based or functional assay; remark: listed apart in the source
[4] = molecular target: T2, mouse CACNG1 expressed on cells (mouse, UniProt O70578 1-223); assay: biosensor conjugate imaging (AF647), 6.7 nM, C2C12 mouse myotubes
T2 construct: whole, on cells; Transfected in HEK293/mCACNG1; endogenous in C2C12 myotubes and wildtype mouse myofibers; Each row names the cell type under assay; also called mCACNG1; HEK293/mCACNG1
T2 sequence (looked up): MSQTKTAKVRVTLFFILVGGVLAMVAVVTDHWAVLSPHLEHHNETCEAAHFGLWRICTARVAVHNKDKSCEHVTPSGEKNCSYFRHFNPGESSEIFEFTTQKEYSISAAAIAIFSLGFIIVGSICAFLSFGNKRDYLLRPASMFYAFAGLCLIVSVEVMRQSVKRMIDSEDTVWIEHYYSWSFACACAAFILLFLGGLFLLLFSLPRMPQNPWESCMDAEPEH
Method: The growth media was changed to MyoTonic Differentiation Media (Cook Myosite Cat #MD-5555) and replaced every 2 days. C2C12 mouse myoblasts were maintained in DMEM with 10% FBS and 1% penicillin-streptomycin supplement and grown in a 37° C. incubator with 5% CO₂. […] After 24 hours, growth media was replaced with differentiation media (DMEM with 2% horse serum) and placed in a 37° C. incubator with 7.5% CO₂.

T1 sequence (Q06432 whole entry): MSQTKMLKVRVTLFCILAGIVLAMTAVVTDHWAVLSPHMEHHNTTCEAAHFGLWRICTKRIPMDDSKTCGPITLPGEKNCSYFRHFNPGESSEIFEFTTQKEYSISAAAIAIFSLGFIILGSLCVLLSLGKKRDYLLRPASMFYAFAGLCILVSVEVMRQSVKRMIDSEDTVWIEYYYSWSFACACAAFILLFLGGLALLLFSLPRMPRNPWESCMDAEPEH

B1: REGN14570 (antibody, human IgG1, kappa, N297Q)
heavy: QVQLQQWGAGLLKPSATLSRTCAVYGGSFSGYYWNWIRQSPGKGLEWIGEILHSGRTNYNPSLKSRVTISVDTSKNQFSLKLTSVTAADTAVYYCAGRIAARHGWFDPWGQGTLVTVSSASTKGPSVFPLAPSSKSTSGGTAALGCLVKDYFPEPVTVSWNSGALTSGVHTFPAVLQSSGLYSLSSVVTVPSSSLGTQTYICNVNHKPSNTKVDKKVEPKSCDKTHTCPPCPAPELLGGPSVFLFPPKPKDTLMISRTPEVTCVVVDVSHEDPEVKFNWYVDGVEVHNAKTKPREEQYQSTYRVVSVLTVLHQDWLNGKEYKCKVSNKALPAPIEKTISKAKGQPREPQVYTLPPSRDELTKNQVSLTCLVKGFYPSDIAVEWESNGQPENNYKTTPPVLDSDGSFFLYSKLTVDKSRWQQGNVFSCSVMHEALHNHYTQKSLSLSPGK
light: DIQMTQSPSSVSTSVGDRVTISCRASQDIRKWLAWYQQKPGKAPKLLIYATSSLQSGVPSRFSGSGSGTDFTLTISSLQPEDFATYFCQQANSFPFTFGQGTKLEIKRTVAAPSVFIFPPSDEQLKSGTASVVCLLNNFYPREAKVQWKVDNALQSGNSQESVTEQDSKDSTYSLSSTLTLSKADYEKHKVYACEVTHQGLSSPVTKSFNRGEC
modifications: conjugated to the M378-Biosensor probe (Example 15) or to budesonide linker-payload M404-M3123, DAR 4.1 (Example 14); attachment residues not stated for these lots
notes: hIgG1 N297Q; Tested only as conjugates; also called REGN14570-M378-Biosensor; REGN14570-M404-M3123
For B1, the “EC50 of androgen receptor luciferase reporter activation (RLU) by the DHT conjugate REGN14570-M3004 in hCACNG1.AR.Luc LNCaP cells, 24 hours; concentration adjusted for DAR” value [1] was 2 nM, the “EC50 of androgen receptor luciferase reporter activation (RLU) by the DHT conjugate REGN14570-M3004 in hCACNG1.AR.Luc LNCaP cells, 48 hours; concentration adjusted for DAR” value [2] was 5.83 nM and the “EC50 of androgen receptor luciferase reporter activation (RLU) by the DHT conjugate REGN14570-M3004 in hCACNG1.AR.Luc LNCaP cells, 72 hours; concentration adjusted for DAR” value [3] was 6.65 nM. B1: binds [4].
